Measurements taken from article PMC2174359 (The Journal of Cell Biology, 2000).

Molecular target: Sec13/31p complex (S. cerevisiae, UniProt Q04491 1-297; P38968 1-1273)
Assay: co-sedimentation

Sec13/31p complex, sequence (Q04491 whole entry, chain 1 of 2): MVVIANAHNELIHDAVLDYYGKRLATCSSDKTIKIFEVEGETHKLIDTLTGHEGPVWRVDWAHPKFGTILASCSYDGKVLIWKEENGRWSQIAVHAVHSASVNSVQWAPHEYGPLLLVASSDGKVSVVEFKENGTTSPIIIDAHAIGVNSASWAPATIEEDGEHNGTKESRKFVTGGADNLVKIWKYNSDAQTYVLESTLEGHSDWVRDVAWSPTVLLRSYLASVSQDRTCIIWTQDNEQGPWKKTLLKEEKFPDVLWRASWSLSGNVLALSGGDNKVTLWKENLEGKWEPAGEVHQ
Sec13/31p complex, sequence (P38968 whole entry, chain 2 of 2): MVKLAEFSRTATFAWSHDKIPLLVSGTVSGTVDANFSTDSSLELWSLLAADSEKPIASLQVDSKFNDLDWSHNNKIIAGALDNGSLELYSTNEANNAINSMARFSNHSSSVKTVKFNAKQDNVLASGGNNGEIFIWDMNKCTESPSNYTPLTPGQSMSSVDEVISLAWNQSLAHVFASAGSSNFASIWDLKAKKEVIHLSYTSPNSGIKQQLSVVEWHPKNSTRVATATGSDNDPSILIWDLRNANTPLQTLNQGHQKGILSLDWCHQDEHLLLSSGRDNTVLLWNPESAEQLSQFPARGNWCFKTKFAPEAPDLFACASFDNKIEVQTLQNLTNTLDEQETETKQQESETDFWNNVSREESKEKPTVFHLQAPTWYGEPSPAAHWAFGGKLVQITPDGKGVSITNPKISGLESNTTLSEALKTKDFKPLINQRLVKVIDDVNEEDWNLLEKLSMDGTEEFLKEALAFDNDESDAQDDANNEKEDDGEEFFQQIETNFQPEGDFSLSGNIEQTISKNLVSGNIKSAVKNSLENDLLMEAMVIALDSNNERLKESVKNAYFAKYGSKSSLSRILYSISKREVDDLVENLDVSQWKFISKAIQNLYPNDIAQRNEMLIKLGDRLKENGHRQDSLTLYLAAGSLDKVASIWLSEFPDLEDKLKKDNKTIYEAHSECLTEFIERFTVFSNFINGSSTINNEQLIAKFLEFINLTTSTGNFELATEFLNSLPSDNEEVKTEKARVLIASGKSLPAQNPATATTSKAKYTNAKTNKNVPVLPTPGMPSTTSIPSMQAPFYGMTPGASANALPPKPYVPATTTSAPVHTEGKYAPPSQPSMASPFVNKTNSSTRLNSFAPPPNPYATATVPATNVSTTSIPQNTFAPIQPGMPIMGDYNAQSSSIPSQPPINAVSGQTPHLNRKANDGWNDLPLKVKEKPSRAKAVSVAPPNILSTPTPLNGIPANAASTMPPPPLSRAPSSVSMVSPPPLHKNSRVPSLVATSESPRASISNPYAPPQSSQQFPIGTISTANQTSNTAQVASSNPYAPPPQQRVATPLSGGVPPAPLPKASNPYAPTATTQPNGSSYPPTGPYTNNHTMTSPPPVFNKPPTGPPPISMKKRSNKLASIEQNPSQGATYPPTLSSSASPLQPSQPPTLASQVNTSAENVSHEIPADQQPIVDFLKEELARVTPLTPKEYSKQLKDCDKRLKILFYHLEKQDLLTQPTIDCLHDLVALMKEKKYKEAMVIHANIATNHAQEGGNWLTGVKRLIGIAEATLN

B1: Lst1p, His6-tagged (LST1-His6) (natural protein, S. cerevisiae, UniProt P38810 1-929, looked up)
chain: MSQQNILAASVSALSLDESTVHTGGASSKKSRRPHRAYHNFSSGTVPTLGNSPYTTPQLNQQDGFQQPQAFTPKQFGGFNNGSGSVMSTPVMVSQERFGASEASSPYGQSMLDMTAPQPTSHIVPTQRFEDQAQYLQRSFETCRDSVPPLPTTQFYCVDQGSCDPHLMSLSMYNIPESEHLRAATKLPLGLTIQPFSTLTPNDAEVPTIPLPMDGTPLRCRRCRAYANPKFQFTYDSSVICNICRVKMQVPGEHFAPMGPNGQRSDLNEKSELLHGTVDFLVPSIYNAIQEKELLPLHYVFLIDVSLLANENGSSLAMVEGVRSCIEYISDFQPNCEVAIIVYDNKLRFFNLRPDLDNAQEYIVSELDDVFLPFYNGLFVKPGNSMKIINDTLIKISGYISTDKYSHVPQVCYGSALQAAKLALDTVTGGQGGKIICSLNSLPTIGNGNLSLKRDNAHIAHVKCDNGFYKKLASDFLKSYISLDLYVTNAGFIDMATVGHPVEMTSGILKYYPHFQQETDAFTLVNDMVTNVSNIVGYQALLKVRCSTGLSVEQYYCDSSDNTDHDPIIPVLTRDTTLDVLLKYDSKIKTGTDVHFQTALLYTDIDGVRKVRSINTSGAVSNNIREIFKFINQNPVMRIMIKDVIKTLGDCDFVKIRRLIDDKMVEILTQYRGLVSSNSSTQLILPDSIKTLPAYMLAFEKSELMKPNAQSTRGNERIYDLLKYDSLNSAQLCYKLYPQIVPFHVLLEETDLTFYDANDKLLQINSSSINNLSVRASHSNFINGGCYLIFQGDTIYLWFNENTNRMLLQDLLSVDESLPVSQISLFSGTLPETGTSINQKASNVIKNWQQVVNKSSLPLVLLRPNVDQYYSNVMSQLLCEDKTVNRIESYDNYLVIMHKKIQEKLQKDDFIKVSTAATHENIHQKFVQF
B1: binds.
